Data published in US20230189818A1, “RNA-BASED CONTROL OF BOTRYTIS” (priority 2021, published 2023).

B1: GS2303: dsRNA trigger targeting B. cinerea Bcded1 (XM_001550339.2); trigger SEQ ID NO 24, RNA 36, reverse complement 48 (nucleic acid, listed as Botrytis cinerea)
sense: GGGCUAUAUAAGCUUUCAUCUAGGUUUUCCAAGAAACGCAUUACGAUAGACAUGUUCUCCAAAAAUCUUACUGGUCCUGCUUUCAGCAUUUCCAUGGAUCAUGAAGUCCUCCACUAUGGAAGAUUUGCAAAAUAUUUUCGACAUUGCAUUUUGCUGCAUUUCGCAUUUCUAGAUAGAAAAAAAGUGGGAUUCAUAUUCUCGAUAUUUUCUUCGUUGUCUUUUAUUCACAAGACACAUGGCAAGGGAGGAUACCAUUUGAGAGCUUGAAUUGAAGGCUUUCCUCUUACUUUUUUUAUUUUUCACAUCAUCUACGAGUGGGCGUCUUUUACGAUCAAAUCGAUAUACGACAGUGGCACAAAAUAGAAUAGGCAUUUCUCUUCUUAAAAAAGAUUUAAGGGAAGAGUUGGUGCUUGUUCUCUAUAACGCUGAUGGCAUUCGGAAGUGCUCCUGUCCAUUCAGGCUGAGACUGAGACCCAAAAUGUUGGCAGGUACGGCAGAAAGAAGUCUGCUUCAUAUGAUUGAUGGAGGAAGAAAGAAAUAUGGAAUGCGAUGGAUGAGUAAUUACUUUAAAUGAAUAUGAAAA
antisense: UUUUCAUAUUCAUUUAAAGUAAUUACUCAUCCAUCGCAUUCCAUAUUUCUUUCUUCCUCCAUCAAUCAUAUGAAGCAGACUUCUUUCUGCCGUACCUGCCAACAUUUUGGGUCUCAGUCUCAGCCUGAAUGGACAGGAGCACUUCCGAAUGCCAUCAGCGUUAUAGAGAACAAGCACCAACUCUUCCCUUAAAUCUUUUUUAAGAAGAGAAAUGCCUAUUCUAUUUUGUGCCACUGUCGUAUAUCGAUUUGAUCGUAAAAGACGCCCACUCGUAGAUGAUGUGAAAAAUAAAAAAAGUAAGAGGAAAGCCUUCAAUUCAAGCUCUCAAAUGGUAUCCUCCCUUGCCAUGUGUCUUGUGAAUAAAAGACAACGAAGAAAAUAUCGAGAAUAUGAAUCCCACUUUUUUUCUAUCUAGAAAUGCGAAAUGCAGCAAAAUGCAAUGUCGAAAAUAUUUUGCAAAUCUUCCAUAGUGGAGGACUUCAUGAUCCAUGGAAAUGCUGAAAGCAGGACCAGUAAGAUUUUUGGAGAACAUGUCUAUCGUAAUGCGUUUCUUGGAAAACCUAGAUGAAAGCUUAUAUAGCCC
B2: GS730: dsRNA trigger targeting B. cinerea Bcsec15 (XM_024692064.1); trigger SEQ ID NO 19, RNA 31, reverse complement 43 (nucleic acid, listed as Botrytis cinerea)
sense: UCAACGCAGUCUCCAAAGCUUUGGAUGAAUUCGAUAACCCGGAUGUUAUUCUGCAAACCAAGAAUGUGAUAGCAUUGUUCAUCCAAACAAUGGAGGGUUGGGGAUAUUCAGUUGCCAUAUUAGAUGCUUAUGUGCUUAAGCUUUUCUAUAGAUAUGCUGAUUUGUUAAAACGGAAAUUCAGCACAGAUUUUCAACAGAUUGUGUCUACCGAUGAAUACAUGCCUAUGCCUGUCAAUAGCGAAGAAGACUUUGAUAAAAUCAUUCAAGUCAGUUGGUAUGUUCCGGACAGACCGAAAGAAGAAUACACAUUCCCCGGUGUAUUACCAUUCUCCCAGAUGUACCCAAUGUGCUGUAUAGAUAUCAGAAAUUUCCUGAAUCGAUUCUACUUCAUAAUGGAUGAUCAUUUUCAACAGCCAAACAUUAUUGAUGAGACACUUAAGAAGUCGAUAGAUGAGCUUCUGUCUGAGGAUAUUUGUGA
antisense: UCACAAAUAUCCUCAGACAGAAGCUCAUCUAUCGACUUCUUAAGUGUCUCAUCAAUAAUGUUUGGCUGUUGAAAAUGAUCAUCCAUUAUGAAGUAGAAUCGAUUCAGGAAAUUUCUGAUAUCUAUACAGCACAUUGGGUACAUCUGGGAGAAUGGUAAUACACCGGGGAAUGUGUAUUCUUCUUUCGGUCUGUCCGGAACAUACCAACUGACUUGAAUGAUUUUAUCAAAGUCUUCUUCGCUAUUGACAGGCAUAGGCAUGUAUUCAUCGGUAGACACAAUCUGUUGAAAAUCUGUGCUGAAUUUCCGUUUUAACAAAUCAGCAUAUCUAUAGAAAAGCUUAAGCACAUAAGCAUCUAAUAUGGCAACUGAAUAUCCCCAACCCUCCAUUGUUUGGAUGAACAAUGCUAUCACAUUCUUGGUUUGCAGAAUAACAUCCGGGUUAUCGAAUUCAUCCAAAGCUUUGGAGACUGCGUUGA
B3: GS2280: dsRNA trigger targeting B. cinerea Bcmcm4 (XM_024696090.1); trigger SEQ ID NO 21, RNA 33, reverse complement 45 (nucleic acid, listed as Botrytis cinerea)
sense: AAUGUCCUCGUCCGGUUUGUAAAUCUCCAAACUCCAUGCAGAUUGUACACAACAGGUCUGGAUUCAUGGAUAAGCAAGUUAUCAAGCUUCAAGAAACUCCAGAUUCCGUUCCUGCUGGUCAAACACCACAUUCCGUCUCGAUGUGUGCAUAUGAUGAGUUGGUGGAUCUGUGCAAAGCUGGUGACAGAGUUGAGAUUACUGGUAUCUUCAAAGCUAGUCCAGUUCGUGUCAAUCCUCGCCAAAGAACUCUCAAAAGCAUUUAUAAAACGUACAUCGACGUUUUACACAUUCAAAAGGUUGACAAGAAAAGAAUGGGAAUUGAUGCUUCGACCGUUGAGCAAGAAAUAUCCGAUCAGUUGACAGGCAACAUUGAAGAAACUAGAAAGGUUUCUGAAGAGGAGGAAGAAAAAAUCAGAGAAACCGCUGCAAGACCCGAUAUCUACGAACUUCUAUCUCGAUCCCUCGCACCUAGUAUUUUUGAGAUGGACGAUGUUAAGAAGGGUAUCUUGCUUCAAUUAUUUGGUGGAACUAACAAGUCUUUCGAAAAAGGAGGAAGUCCAAAAUACAGAGGAGAUAUCAAUAUUCUAUUGU
antisense: ACAAUAGAAUAUUGAUAUCUCCUCUGUAUUUUGGACUUCCUCCUUUUUCGAAAGACUUGUUAGUUCCACCAAAUAAUUGAAGCAAGAUACCCUUCUUAACAUCGUCCAUCUCAAAAAUACUAGGUGCGAGGGAUCGAGAUAGAAGUUCGUAGAUAUCGGGUCUUGCAGCGGUUUCUCUGAUUUUUUCUUCCUCCUCUUCAGAAACCUUUCUAGUUUCUUCAAUGUUGCCUGUCAACUGAUCGGAUAUUUCUUGCUCAACGGUCGAAGCAUCAAUUCCCAUUCUUUUCUUGUCAACCUUUUGAAUGUGUAAAACGUCGAUGUACGUUUUAUAAAUGCUUUUGAGAGUUCUUUGGCGAGGAUUGACACGAACUGGACUAGCUUUGAAGAUACCAGUAAUCUCAACUCUGUCACCAGCUUUGCACAGAUCCACCAACUCAUCAUAUGCACACAUCGAGACGGAAUGUGGUGUUUGACCAGCAGGAACGGAAUCUGGAGUUUCUUGAAGCUUGAUAACUUGCUUAUCCAUGAAUCCAGACCUGUUGUGUACAAUCUGCAUGGAGUUUGGAGAUUUACAAACCGGACGAGGACAUU
B4: GS349: dsRNA trigger targeting B. cinerea CDC42 (XM_001545642.2); trigger SEQ ID NO 14, RNA 26, reverse complement 38 (nucleic acid, listed as Botrytis cinerea)
sense: GUUGUCUUGUCUCGCUCAAGCUUGUCCUGUCUGGUCACUUUUCUUUCUGCCUGAUAAUCCAGACCUCGAAAAUAACCAAAAGAUUGGAAAUCGUUUGCUCAUCUUGCAUGCAUUAUUACUUUCCUGGAUCAAUCUCAUUCAACUCGUUCUCGUGCAUUUCAUUCAACCUCAACCCCUACUUUCAGUCAAUUCAAUUUAAUUCAAUCAUUCAAAUCUUUCAUUUCGCACACUUCACAUUCAACCAUCCUCUCUCAAUCAAAUAUCACCACCUCUCUUAUCGAACGUCAUUUUGCAUACAAUCAAUUCCUACAGACCGAGCGCAACUCGAUACAACCAUCGAAUAACUUCUCACACUUGCUUGUUGAAUUGAUUACUGAAGAAAGUGGAUUUCAAAGACCGAUUUUCCCCCUAGAUAUUCAAGAACGGCUUAUUCUUGUCUCGAGACAAAAC
antisense: GUUUUGUCUCGAGACAAGAAUAAGCCGUUCUUGAAUAUCUAGGGGGAAAAUCGGUCUUUGAAAUCCACUUUCUUCAGUAAUCAAUUCAACAAGCAAGUGUGAGAAGUUAUUCGAUGGUUGUAUCGAGUUGCGCUCGGUCUGUAGGAAUUGAUUGUAUGCAAAAUGACGUUCGAUAAGAGAGGUGGUGAUAUUUGAUUGAGAGAGGAUGGUUGAAUGUGAAGUGUGCGAAAUGAAAGAUUUGAAUGAUUGAAUUAAAUUGAAUUGACUGAAAGUAGGGGUUGAGGUUGAAUGAAAUGCACGAGAACGAGUUGAAUGAGAUUGAUCCAGGAAAGUAAUAAUGCAUGCAAGAUGAGCAAACGAUUUCCAAUCUUUUGGUUAUUUUCGAGGUCUGGAUUAUCAGGCAGAAAGAAAAGUGACCAGACAGGACAAGCUUGAGCGAGACAAGACAAC

Legend:
[1] = system: Botrytis cinerea isolate (B05.10); assay: Detached leaf assay (tomato leaflets, lesion size); format: in vivo; settings: five days post inoculation, vs untreated inoculated control
Outline: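 Tomato (Brandywine) detached lateral leaflets were sprayed with treatment in 0.03% Silwet L-77 24 h before inoculation. Two 10 μL drops of 1×10^5 conidia/mL in 7% grape juice were applied per leaflet, which was then incubated at 23 °C, ~75% RH, 12/12 light. Lesion diameter was measured at 5 DPI against the untreated inoculated control, ten replicates.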

[2] = system: Botrytis cinerea B05.10 isolate; assay: Greenhouse whole plant assay (tomato 'Lanai', disease severity); format: in vivo; settings: final rating day (rating #3)
[3] = 8 g ai/ha, three runs, four-week-old 'Lanai' tomato plant
[4] = 25 g ai/ha, three runs, four-week-old 'Lanai' tomato plant
[5] = 8 g ai/ha, two runs, three-week-old 'Lanai' tomato plant
[6] = 25 g ai/ha, two runs, three-week-old 'Lanai' tomato plant

Molecule | Average % Reduction in Lesion Size ([1]; 30 ppm) [%] | Average % Reduction in Lesion Size ([1]; 50 ppm) [%] | % control [2, 3] [%] | % control [2, 4] [%] | % control [2, 5] [%] | % control [2, 6] [%]
B1 | 43.06 | 26.55 | 0 | 34 |  | 
B2 | 16.38 | 25.11 |  |  | 61 | 58
B3 | 32.13 | 24.08 | 0 | 36 |  | 
B4 | 32.99 | 31.80 |  |  | 46 | 59
